Target: human PD1 expressed on Jurkat/AP1-Luc/hPD1 cells (human) (UniProt Q15116)
Experiment: cell-based or functional assay

human PD1 expressed on Jurkat/AP1-Luc/hPD1 cells (human), sequence (Q15116 25-288): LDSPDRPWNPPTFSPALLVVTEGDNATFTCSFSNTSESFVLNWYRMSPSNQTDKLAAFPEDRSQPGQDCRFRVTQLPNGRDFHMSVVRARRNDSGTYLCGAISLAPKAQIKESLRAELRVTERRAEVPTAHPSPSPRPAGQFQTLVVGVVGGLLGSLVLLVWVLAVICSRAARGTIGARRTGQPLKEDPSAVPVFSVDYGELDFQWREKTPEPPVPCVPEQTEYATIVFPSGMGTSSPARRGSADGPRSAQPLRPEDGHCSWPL

AP-1 luciferase EC50, WSU-DLCL2/hPD-L1 + Jurkat/AP1-Luc/hPD1: 0.29 nM
AP-1 luciferase MAX (RLU), WSU-DLCL2/hPD-L1 + Jurkat/AP1-Luc/hPD1: 1.1e+06 RLU
B1: REGN2810 (cemiplimab, LIBTAYO), anti-PD1 antibody (antibody, INN chains, looked up, V domains shown)
VH: EVQLLESGGVLVQPGGSLRLSCAASGFTFSNFGMTWVRQAPGKGLEWVSGISGGGRDTYFADSVKGRFTISRDNSKNTLYLQMNSLKGEDTAVYYCVKWGNIYFDYWGQGTLVTVSS
VL: DIQMTQSPSSLSASVGDSITITCRASLSINTFLNWYQQKPGKAPNLLIYAASSLHGGVPSRFSGSGSGTDFTLTIRTLQPEDFATYYCQQSSNTPFTFGPGTVVDFR

Source: patent US20250043002A1
